Among the data in PMC5700921 are EC50 of proliferation (MTT assay, 24 h) of β-klotho-transfected NIH-3T3 cells, hFGF21 values, retold here.

For the assay, the target named is T1, β-klotho (UniProt Q99N32).
T1 sequence: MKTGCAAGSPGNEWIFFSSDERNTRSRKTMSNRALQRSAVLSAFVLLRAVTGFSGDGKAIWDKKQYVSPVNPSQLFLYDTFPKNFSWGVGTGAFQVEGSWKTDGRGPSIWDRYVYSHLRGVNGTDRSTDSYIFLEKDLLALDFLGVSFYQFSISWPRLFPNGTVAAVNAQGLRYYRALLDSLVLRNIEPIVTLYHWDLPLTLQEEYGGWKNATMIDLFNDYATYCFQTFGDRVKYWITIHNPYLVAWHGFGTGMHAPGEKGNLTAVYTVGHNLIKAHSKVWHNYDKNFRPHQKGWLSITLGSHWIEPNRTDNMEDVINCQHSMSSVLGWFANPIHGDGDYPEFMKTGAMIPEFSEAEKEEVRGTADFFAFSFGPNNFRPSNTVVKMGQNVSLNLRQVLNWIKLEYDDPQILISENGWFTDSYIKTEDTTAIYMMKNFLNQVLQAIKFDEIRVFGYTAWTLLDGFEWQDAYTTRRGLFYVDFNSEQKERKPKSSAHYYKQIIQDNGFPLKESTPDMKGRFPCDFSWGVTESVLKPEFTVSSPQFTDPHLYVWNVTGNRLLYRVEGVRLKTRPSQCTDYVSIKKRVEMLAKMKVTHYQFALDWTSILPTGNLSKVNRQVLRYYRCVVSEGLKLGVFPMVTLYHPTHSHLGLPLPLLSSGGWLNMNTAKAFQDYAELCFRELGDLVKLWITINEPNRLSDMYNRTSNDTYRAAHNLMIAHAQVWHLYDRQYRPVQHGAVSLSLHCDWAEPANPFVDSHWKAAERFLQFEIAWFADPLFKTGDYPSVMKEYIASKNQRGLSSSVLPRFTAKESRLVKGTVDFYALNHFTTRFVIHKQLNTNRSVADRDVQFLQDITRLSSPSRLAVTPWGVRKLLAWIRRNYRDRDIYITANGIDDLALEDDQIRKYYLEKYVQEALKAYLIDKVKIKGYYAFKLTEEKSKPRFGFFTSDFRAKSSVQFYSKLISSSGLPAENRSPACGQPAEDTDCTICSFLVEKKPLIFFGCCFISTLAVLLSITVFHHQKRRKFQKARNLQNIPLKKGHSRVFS

As for “purified human fibroblast growth factor 21 (hFGF21), tag-free after TEV cleavage of MBP-hFGF21 (from UniProt Q9NSA1 29-209) (ligand)”, the EC50 of proliferation (MTT assay, 24 h) of β-klotho-transfected NIH-3T3 cells, hFGF21 at 0.01-500 ng/mL; untransfected cells showed no proliferative effect (data not shown) was 0.3 nM.
